{"source": "the supplement of paper PMC9112550", "about": "“Optimization of the antimicrobial peptide Bac7 by deep mutational scanning” (BMC Biology, 2022);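 note: peptides expressed intracellularly from a pBAD plasmid library in pooled LB shake-flask culture, induced with 0.3% L-arabinose, DNA abundance read by NGS, three biological replicates, DESeq2 with apeglm shrinkage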"}
{"test_system": "Escherichia coli TOP10", "experiment": "shrunken log2 fold change of peptide-encoding DNA abundance (4.5 h post-induction vs induction); higher = less antimicrobial activity (less host growth inhibition)", "conditions": "time post-induction: 4.5 h; library: site-saturation at positions 5, 18, 19, 20"}
{"sequence": "RRIRWRPPRLPRPRPRPVRIPRP", "shrunken log2 fold change": -0.0854}
{"sequence": "RRIRQRPPRLPRPRPRPEYAPRP", "shrunken log2 fold change": -0.042}
{"sequence": "RRIRCRPPRLPRPRPRPYQQPRP", "shrunken log2 fold change": -0.12}
{"sequence": "RRIRWRPPRLPRPRPRPEGQPRP", "shrunken log2 fold change": 4.45}
{"sequence": "RRIRHRPPRLPRPRPRPFFPPRP", "shrunken log2 fold change": -0.285}
{"sequence": "RRIRIRPPRLPRPRPRPIERPRP", "shrunken log2 fold change": -0.0785}
{"sequence": "RRIRNRPPRLPRPRPRPVPRPRP", "shrunken log2 fold change": 0.0283}
{"sequence": "RRIRGRPPRLPRPRPRPRECPRP", "shrunken log2 fold change": 0.562}
{"sequence": "RRIRYRPPRLPRPRPRPSGGPRP", "shrunken log2 fold change": -0.519}
{"sequence": "RRIRKRPPRLPRPRPRPWAPPRP", "shrunken log2 fold change": 0.0466}
{"sequence": "RRIRGRPPRLPRPRPRPYWMPRP", "shrunken log2 fold change": -0.34}
{"sequence": "RRIRIRPPRLPRPRPRPPWAPRP", "shrunken log2 fold change": 0.388}
{"sequence": "RRIRARPPRLPRPRPRPLPRPRP", "shrunken log2 fold change": 0.768}
{"sequence": "RRIRDRPPRLPRPRPRPFEMPRP", "shrunken log2 fold change": 0.182}
{"sequence": "RRIRLRPPRLPRPRPRPDKVPRP", "shrunken log2 fold change": -0.0274}
{"sequence": "RRIRKRPPRLPRPRPRPKICPRP", "shrunken log2 fold change": 0.0599}
{"sequence": "RRIRGRPPRLPRPRPRPEGVPRP", "shrunken log2 fold change": 1.48}
{"sequence": "RRIRERPPRLPRPRPRPHMCPRP", "shrunken log2 fold change": -0.0653}
{"sequence": "RRIRPRPPRLPRPRPRPVDLPRP", "shrunken log2 fold change": 0.036}
{"sequence": "RRIRGRPPRLPRPRPRPDGMPRP", "shrunken log2 fold change": 0.86}
{"sequence": "RRIRFRPPRLPRPRPRPDFSPRP", "shrunken log2 fold change": -0.259}
{"sequence": "RRIRKRPPRLPRPRPRPRCTPRP", "shrunken log2 fold change": 0.555}
{"sequence": "RRIRPRPPRLPRPRPRPCAAPRP", "shrunken log2 fold change": 0.888}
{"sequence": "RRIRERPPRLPRPRPRPAAQPRP", "shrunken log2 fold change": 0.261}
{"sequence": "RRIRWRPPRLPRPRPRPIRHPRP", "shrunken log2 fold change": -0.252}
{"sequence": "RRIRSRPPRLPRPRPRPKEGPRP", "shrunken log2 fold change": -0.0287}
{"sequence": "RRIRARPPRLPRPRPRPQLRPRP", "shrunken log2 fold change": 0.157}
{"sequence": "RRIRERPPRLPRPRPRPKKEPRP", "shrunken log2 fold change": -0.0367}
{"sequence": "RRIRYRPPRLPRPRPRPVSNPRP", "shrunken log2 fold change": -1.07}
{"sequence": "RRIRWRPPRLPRPRPRPGIAPRP", "shrunken log2 fold change": 0.411}
{"sequence": "RRIRYRPPRLPRPRPRPKHEPRP", "shrunken log2 fold change": -0.0393}
{"sequence": "RRIRVRPPRLPRPRPRPYNFPRP", "shrunken log2 fold change": -0.577}
{"sequence": "RRIRHRPPRLPRPRPRPDPNPRP", "shrunken log2 fold change": -0.0239}
{"sequence": "RRIRIRPPRLPRPRPRPGNFPRP", "shrunken log2 fold change": -0.064}
{"sequence": "RRIRGRPPRLPRPRPRPGVQPRP", "shrunken log2 fold change": 0.739}
{"sequence": "RRIRARPPRLPRPRPRPPTQPRP", "shrunken log2 fold change": 0.718}
{"sequence": "RRIRHRPPRLPRPRPRPQICPRP", "shrunken log2 fold change": 0.00386}
{"sequence": "RRIRGRPPRLPRPRPRPCHWPRP", "shrunken log2 fold change": -0.175}
{"sequence": "RRIRQRPPRLPRPRPRPFTTPRP", "shrunken log2 fold change": -0.0246}
{"sequence": "RRIRGRPPRLPRPRPRPKRIPRP", "shrunken log2 fold change": 0.147}
{"sequence": "RRIRDRPPRLPRPRPRPHSYPRP", "shrunken log2 fold change": -0.0739}
{"sequence": "RRIRRRPPRLPRPRPRPNHPPRP", "shrunken log2 fold change": -0.0297}
{"sequence": "RRIRMRPPRLPRPRPRPWYWPRP", "shrunken log2 fold change": -0.724}
{"sequence": "RRIRVRPPRLPRPRPRPFVKPRP", "shrunken log2 fold change": -0.199}
{"sequence": "RRIRPRPPRLPRPRPRPSWMPRP", "shrunken log2 fold change": -0.288}
{"sequence": "RRIRGRPPRLPRPRPRPRAQPRP", "shrunken log2 fold change": 0.778}
{"sequence": "RRIRNRPPRLPRPRPRPIIIPRP", "shrunken log2 fold change": -0.663}
{"sequence": "RRIRERPPRLPRPRPRPPILPRP", "shrunken log2 fold change": -0.471}
{"sequence": "RRIRHRPPRLPRPRPRPDHTPRP", "shrunken log2 fold change": -0.307}
{"sequence": "RRIRLRPPRLPRPRPRPDICPRP", "shrunken log2 fold change": -0.102}
{"sequence": "RRIRFRPPRLPRPRPRPAHAPRP", "shrunken log2 fold change": 0.0606}
{"sequence": "RRIRERPPRLPRPRPRPNYSPRP", "shrunken log2 fold change": -0.63}
{"sequence": "RRIRCRPPRLPRPRPRPWHIPRP", "shrunken log2 fold change": -0.421}
{"sequence": "RRIRTRPPRLPRPRPRPSAPPRP", "shrunken log2 fold change": 0.269}
{"sequence": "RRIRRRPPRLPRPRPRPGETPRP", "shrunken log2 fold change": 0.309}
{"sequence": "RRIRARPPRLPRPRPRPFVTPRP", "shrunken log2 fold change": -0.166}
{"sequence": "RRIRYRPPRLPRPRPRPRYAPRP", "shrunken log2 fold change": -0.0163}
{"sequence": "RRIRWRPPRLPRPRPRPERDPRP", "shrunken log2 fold change": 0.128}
{"sequence": "RRIRYRPPRLPRPRPRPLHWPRP", "shrunken log2 fold change": -0.211}
{"sequence": "RRIRKRPPRLPRPRPRPEPWPRP", "shrunken log2 fold change": 0.895}
{"sequence": "RRIRYRPPRLPRPRPRPPWHPRP", "shrunken log2 fold change": -0.507}
{"sequence": "RRIRPRPPRLPRPRPRPTNIPRP", "shrunken log2 fold change": -0.687}
{"sequence": "RRIRARPPRLPRPRPRPGCRPRP", "shrunken log2 fold change": 0.609}
{"sequence": "RRIRPRPPRLPRPRPRPWPHPRP", "shrunken log2 fold change": 0.0318}
{"sequence": "RRIRKRPPRLPRPRPRPWYCPRP", "shrunken log2 fold change": -0.339}
{"sequence": "RRIRWRPPRLPRPRPRPRFGPRP", "shrunken log2 fold change": 0.395}
{"sequence": "RRIRERPPRLPRPRPRPRVSPRP", "shrunken log2 fold change": 0.0184}
{"sequence": "RRIRKRPPRLPRPRPRPEDFPRP", "shrunken log2 fold change": 0.24}
{"sequence": "RRIRGRPPRLPRPRPRPPVRPRP", "shrunken log2 fold change": 0.859}
{"sequence": "RRIRFRPPRLPRPRPRPKKIPRP", "shrunken log2 fold change": -0.028}
{"sequence": "RRIRERPPRLPRPRPRPTKDPRP", "shrunken log2 fold change": -0.239}
{"sequence": "RRIRNRPPRLPRPRPRPEFAPRP", "shrunken log2 fold change": 0.175}
{"sequence": "RRIRWRPPRLPRPRPRPYFRPRP", "shrunken log2 fold change": -0.787}
{"sequence": "RRIRVRPPRLPRPRPRPQTHPRP", "shrunken log2 fold change": 0.01}
{"sequence": "RRIRMRPPRLPRPRPRPCGEPRP", "shrunken log2 fold change": 0.967}
{"sequence": "RRIRYRPPRLPRPRPRPLYMPRP", "shrunken log2 fold change": -0.441}
{"sequence": "RRIRNRPPRLPRPRPRPSDWPRP", "shrunken log2 fold change": 0.0113}
{"sequence": "RRIRMRPPRLPRPRPRPIARPRP", "shrunken log2 fold change": 0.184}
{"sequence": "RRIRGRPPRLPRPRPRPIVLPRP", "shrunken log2 fold change": -0.0411}
{"sequence": "RRIRVRPPRLPRPRPRPTPCPRP", "shrunken log2 fold change": -0.147}
{"sequence": "RRIRKRPPRLPRPRPRPQIWPRP", "shrunken log2 fold change": 0.138}
{"sequence": "RRIRKRPPRLPRPRPRPMVVPRP", "shrunken log2 fold change": -0.0348}
{"sequence": "RRIRERPPRLPRPRPRPFDKPRP", "shrunken log2 fold change": -1.7}
{"sequence": "RRIRARPPRLPRPRPRPHEMPRP", "shrunken log2 fold change": 0.588}
{"sequence": "RRIRQRPPRLPRPRPRPWCNPRP", "shrunken log2 fold change": -0.00865}
{"sequence": "RRIRKRPPRLPRPRPRPMSRPRP", "shrunken log2 fold change": 0.0843}
{"sequence": "RRIRRRPPRLPRPRPRPCEAPRP", "shrunken log2 fold change": 0.127}
{"sequence": "RRIRHRPPRLPRPRPRPTDRPRP", "shrunken log2 fold change": 0.0577}
{"sequence": "RRIRHRPPRLPRPRPRPPVNPRP", "shrunken log2 fold change": 0.0303}
{"sequence": "RRIRPRPPRLPRPRPRPLMIPRP", "shrunken log2 fold change": -0.152}
{"sequence": "RRIRIRPPRLPRPRPRPWGTPRP", "shrunken log2 fold change": -0.859}
{"sequence": "RRIRQRPPRLPRPRPRPHIWPRP", "shrunken log2 fold change": -0.333}
{"sequence": "RRIRKRPPRLPRPRPRPWTLPRP", "shrunken log2 fold change": 0.00115}
{"sequence": "RRIRFRPPRLPRPRPRPIWEPRP", "shrunken log2 fold change": -0.0122}
{"sequence": "RRIRGRPPRLPRPRPRPWEPPRP", "shrunken log2 fold change": 0.177}
{"sequence": "RRIRLRPPRLPRPRPRPNRLPRP", "shrunken log2 fold change": -0.0858}
{"sequence": "RRIRERPPRLPRPRPRPKVYPRP", "shrunken log2 fold change": -0.126}
{"sequence": "RRIRHRPPRLPRPRPRPTHHPRP", "shrunken log2 fold change": -0.132}
{"sequence": "RRIRNRPPRLPRPRPRPRDFPRP", "shrunken log2 fold change": 0.0201}
{"sequence": "RRIRTRPPRLPRPRPRPLTYPRP", "shrunken log2 fold change": 0.959}
{"sequence": "RRIRDRPPRLPRPRPRPKMYPRP", "shrunken log2 fold change": 0.0269}
{"sequence": "RRIRMRPPRLPRPRPRPLRMPRP", "shrunken log2 fold change": 1.88}
{"sequence": "RRIRQRPPRLPRPRPRPQQCPRP", "shrunken log2 fold change": -0.132}
{"sequence": "RRIRIRPPRLPRPRPRPVDKPRP", "shrunken log2 fold change": 0.0266}
{"sequence": "RRIRSRPPRLPRPRPRPPYMPRP", "shrunken log2 fold change": -0.316}
{"sequence": "RRIRPRPPRLPRPRPRPRAGPRP", "shrunken log2 fold change": 0.626}
{"sequence": "RRIRKRPPRLPRPRPRPKFNPRP", "shrunken log2 fold change": -0.0876}
{"sequence": "RRIRKRPPRLPRPRPRPALQPRP", "shrunken log2 fold change": 0.493}
{"sequence": "RRIRPRPPRLPRPRPRPDVPPRP", "shrunken log2 fold change": -0.0575}
